Assay: soluble on expression in E. coli; label from the status in PepcDB or PDB records

Sequence	soluble on expression in E. coli
MGSSHHHHHHSSGLVPRGSHMMEVGFLGLGIMGKAMSMNLLKNGFKVTVWNRTLSKCDELVEHGASVCESPAEVIKKCKYTIAMLSDPCAALSVVFDKGGVLEQICEGKGYIDMSTVDAETSLKINEAITGKGGRFVEGPVSGSKKPAEDGQLIILAAGDKALFEESIPAFDVLGKRSFYLGQVGNGAKMKLIVNMIMGSMMNAFSEGLVLADKSGLSSDTLLDILDLGAMTNPMFKGKGPSMNKSSYPPAFPLKHQQKDMRLALALGDENAVSMPVAAAANEAFKKARSLGLGDLDFSAVIEAVKFSRE	soluble
MGSSHHHHHHSSGLVPRGSHMNVKKFPEGFLWGAATSSYQIEGAWNEDGKGESIWDRFTRIPGKIKNGDSGDVACDHYHRYEQDLDLMRQLGLKTYRFSIAWARIQPDSSRQINQRGLDFYRRLVEGLHKRDILPMATLYHWDLPQWVEDEGGWLSRESASRFAEYTHALVAALGDQIPLWVTHNEPMVTVWAGYHMGLFAPGLKDPTLGGRVAHHLLLSHGQALQAFRALSPAGSQMGITLNFNTIYPVSAEPADVEAARRMHSFQNELFLEPLIRGQYNQATLMAYPNLPEFIAPEDMQTISAPIDFLGVNYYNPMRVKSSPQPPGIEVVQVESPVTAMGWEIAPEGLYDLLMGITRTYGKLPIYITENGAAFDDQPDQSGQVNDPQRVGYFQGHIGAARRALADGVDLRGYYAWSLLDNFEWAEGYSKRFGIIYVDFETQQRTLKQSAQWYRDVIANNGLED	soluble
MGSSHHHHHHSSGLVPRGSHMRKVKIGELINSLVSEVEAIDASDRPQGDKTKKIKAAALKYKNALFNDKRKFRGKGLEKRISANTFNSYMSRARKRFDDRLHHNFEKNVIKLSEKYPLYSEELSSWLSMPAASIRQHMSRLQAKLKEIMPLAEDLSNIKIGTKNSEAKINKLANKYPEWQFAISDLNSEDWKDKRDYLYKLFQQGSSLLEDLNNLKVNHEVLYHLQLSSAERTSIQQRWANVLSEKKRNVVVIDYPRYMQAIYDIINKPIVSFDLTTRRGMAPLAFALAALSGRRMIEIMLQGEFSVAGKYTVTFLGQAKKRSEDKGISRKIYTLCDATLFVSLVNELRSCPAAADFDEVIKGYGENDTRSENGRINAILATAFNPWVKTFLGDDRRVYKDSRAIYARIAYEMFFRVDPRWKNVDEDVFFMEILGHDDENTQLHYKQFKLANFSRTWRPNVGEENARLAALQKLDSMMPDFARGDAGVRIHETVKQLVEQDPSIKITNSTLRPFNFSTRLIPRYLEFAADALGQFVGENGQWQLKDEAPAIVLPDEEI	soluble
MGSSHHHHHHSSGLVPRGSHVHNKVTIIGSGPAAHTAAIYLARAEIKPILYEGMMANGIAAGGQLTTTTEIENFPGFPDGLTGSELMDRMREQSTKFGTEIITETVSKVDLSSKPFKLWTEFNEDAEPVTTDAIILATGASAKRMHLPGEETYWQKGISACAVCDGAVPIFRNKPLAVIGGGDSACEEAQFLTKYGSKVFMLVRKDHLRASTIMQKRAEKNEKIEILYNTVALEAKGDGKLLNALRIKNTKKNEETDLPVSGLFYAIGHTPATKIVAGQVDTDEAGYIKTVPGSSLTSVPGFFAAGDVQDSKYRQAITSAGSGCMAALDAEKYLTSLE	soluble
MGSSHHHHHHSSGLVPRSGHMEPRGTKRKAEKTEVEKPLNKLPRAVPSLRTQPSLYSGPFPFYRRPSELGCFSLDAQRQYHGDARALRYYSPPPINGPGPDFDLRDGYPDRYQPRDEEVQERLDHLLRWVLEHRNQLEGGPGWLAGATVTWRGHLTKLLTTPYERQEGWQLAASRFQGTLYLSEVETPAARAQRLARPPLLRELMYMGYKFEQYMCADKPGGSPDPSGEVNTNVAYCSVLRSRLGNHPLLFSGEVDCLNPQAPCTQPPSCYVELKTSKEMHSPGQWRSFYRHKLLKWWAQSFLPGVPHVVAGFRNPEGFVCSLKTFPTMEMFENVRNDREGWNPSVCMNFCAAFLSFAQSTVVQDDPRLVHLFSWEPGGPVTVSVHRDAPYAFLPSWYVETMTQDLPPLSKTPSPKD	soluble
MGSSHHHHHHSSGRENKYFQGHMRNVALITGITGQDGSYLAEFLLEKGYEVHGIVRRSSSFNTGRIEHLYKNPQAHIEGNMKLHYGDLTDSTCLVKIINEVKPTEIYNLGAQSHVKISFDLAEYTADVDGVGTLRLLDAVKTCGLINSVKFYQASTSELYGKVQEIPQKETTPFYPRSPYGAAKLYAYWIVVNFREAYNLFAVNGILFNHESPRRGANFVTRKISRSVAKIYLGQLECFSLGNLDAKRDWGHAKDYVEAMWLMLQNDEPEDFVIATGEVHSVREFVEKSFLHIGKTIVWEGKNENEVGRCKETGKVHVTVDLKYYRPTEVDFLQGDCTKAKQKLNWKPRVAFDELVREMVHADVELMRTNPNAGS	soluble
MGSSHHHHHHSSGRENLYFQGHMAQLYFYYSAMNAGKSTALLQSSYNYQERGMRTVVYTAEIDDRFGAGKVSSRIGLSSPAKLFNQNSSLFDEIRAEHEQQAIHCVLVDECQFLTRQQVYELSEVVDQLDIPVLCYGLRTDFRGELFIGSQYLLAWSDKLVELKTICFCGRKASMVLRLDQAGRPYNEGEQVVIGGNERYVSVCRKHYKEALQVDSLTAIQERHRHD	soluble
MGSSHHHHHHSSGRENLYFQGHMSKPIVMERGVKYRDADKMALIPVKNVATEREALLRKPEWMKIKLPADSTRIQGIKAAMRKNGLHSVCEEASCPNLAECFNHGTATFMILGAICTRRCPFCDVAHGRPVAPDANEPVKLAQTIADMALRYVVITSVDRDDLRDGGAQHFADCITAIREKSPQIKIETLVPDFRGRMDRALDILTATPPDVFNHNLENVPRIYRQVRPGADYNWSLKLLERFKEAHPEIPTKSGLMVGLGETNEEIIEVMRDLRRHGVTMLTLGQYLQPSRHHLPVQRYVSPDEFDEMKAEALAMGFTHAACGPFVRSSYHADLQAKGMEVK	soluble
MGSSHHHHHHSSGRENLYFQGMPIITFLPSGKRAEVDEGKTILSAAQEIGEGIRSLCGGKGSCGKCLVVVRKGDVEILSEEAHEKFVREKGYYLACQTAVKGDVEVFIPPESRLERQQILKDFFISSKEFNPVVKVEFCSDAFLPEVLSQKGLRLACSTDVEEGDFGLVVRGKEVIDVLPDEKAFGLAVDVGTTTIVAALVDLKDGKVVNVASDYNGQIIYGEEVLSRVEFARSRKDGVEVLQRAVVESINKLIDKLLEGYATPDRIYDVVAAGNTIMTHFLVGKDVEYLFSSPDVKVEREGFVVNASEIGLKVNSNAELFCLPPVGRFVGGDIVGDILASRIVDSATISLMVDLGTNGEIVVGSEGWAMATSVASGPAFEGYEIKHGSRAVEGAIDHVEIEGEEVRYTVIGNGKPRSICGSGLIDLMAEMFKNGILDATGAMNKKHPRVRRGEDGYEFVVVEAEKSATAKDIVFTEKDVETLLKSKAAVCAGIAVLIKKAGLGLEDIDEFYIAGAFGYYINFDNAVTIGLFPELKAEVKQIGNGSLAGAYLALVSERKRKLAETIANAFAYFDLSTDADFVEEYRAALSLPGRPELFPETYAKYV	soluble
MGSSHHHHHHSSGRENLYFQGMTTAKRDTYTPETLLSVAVQVFIERGYDGTSMEHLSKAAGISKSSIYHHVTGKEELLRRAVSRALDELFGILDEEHARVGTAAERLEYVVRRMVEVLMAELPYVTLLLRVRGNTGTERWALERRREFDHRVAALLKDAAAEGDVRADVEVRLATRLVFGMINSIVEWYRPEGPDGRSDASGASGVSGAGEREVVDAVARLVFGGLRKAS	soluble
MGSSHHHHHHSSGRENLYFQGMVSVTFEPVGKKVEDEPDTILEIARRNGVLIRSDCGGKGVCGKCKVVVVDYRGSLSDITDHERKHLIEEEISKGYRLACQARVEEGRATIFIPPESRLERRKVAGLTIEKEVELNPAVRKVYAEIQPPSIEDQLPDYDRLTRALGDFSLDLETLSEMPKLLREAEWRVTATFWNGRLIDLEKGDVSDRCYGVAVDVGSSKIICHLVDLKSGETIATGYSDNPQVAYGEDIVSRITYASKSAENRKRLQTVVVETVNQIIAELCNESGVDLRHVYEVMIVGNSVMHHLFFGIEPRFIGVSPFTPAVRRGVSFPAEDVGLRINRKGYVSSLPLVAGFVGADAVANIAITGIHKAEEISMVIDIGTNTEIVIGNREKLGVCSAPSGPAFEGAHITFGMKAISGAIDSVRIERDEVIYTTIDNAKAKGLCGTGLIDLIAELYRNGIINRNGKFVKDHSRIIVDGVPKFVVAKAEETEFGKPITVSEKDINELLMAKGAIKSGWMILSERLGIEPDKIERIYLAGSFGRHINVENAKVIGLLPDIPSEKITFAGDTAVGGAKMALKSVRVRDEMEDVVSRLNYVELSVEKNFYSVFVRAIPI	soluble
MGSSHHHHHHSSGRENLYFQGPSNSDAAHAFWSTQPVPQTEDEDEKIVFAGPMDEPKTVADIPEEPYPIASTFEWWTPNMEAADDIHAIYELLRDNYVEDDDSMFRFNYSEEFLQWALCPPNYIPDWHVAVRRKADKKLLAFIAGVPVTLRMGTPKYMKVKAQEKGEGEEAAKYDEPRHICEINFLCVHKQLREKRLAPILIKEATRRVNRTNVWQAVYTAGVLLPTPYASGQYFHRSLNPEKLVEIRFSGIPAQYQKFQNPMAMLKRNYQLPSAPKNSGLREMKPSDVPQVRRILMNYLDSFDVGPVFSDAEISHYLLPRDGVVFTYVVENDKKVTDFFSFYRIPSTVIGNSNYNLLNAAYVHYYAATSIPLHQLILDLLIVAHSRGFDVCNMVEILDNRSFVEQLKFGAGDGHLRYYFYNWAYPKIKPSQVALVML	soluble
MGTASYPDPEIRALAEKITANATSDLEKVKAIESYLKNNYINTYVERTDVKEFLFKTKRGTAREFATAFVLLAQSIGIPARAVFGYLADPVETNQTIFASDAYVWAEVRFKEGWMEFDPAPEGRG	soluble
MGTNLPTEVGQILSAPTSIDYNYPTTGVWDASYDICLDSTPKTTGVNQQEIMIWFNHQGSIQPVGSPVGNTTIEGKNFVVWDGSNGMNNAMAYVATEPIEVWSFDVMSFVDHTATMEPITDSWYLTSIRAGLEPWSDGVGLGVDSFSAKVN	soluble
MGTYVEPSKLSYGEYLESWFNTKRHSVGIQTAKVLKGYLNSRIIPSLGNIKLAKLTSLHMQNYVNSLRDEGLKRGTIEKIIKVIRNSLEHAIDLELITKNVAAKTKLPKADKEELEHHHHHH	not soluble
MGVATMVTDKYQKCIDACNRCSQACYECFKACLNEPDVNARRTCISILFECAQMCQMSSALMSMDAQFAIDHCKLCSVICDKCAQECSMFQDPHCQKCANECRTCSNECRMMSGMLEHHHHHH	soluble
MGVLDHVSEYFDCSHGSSKRHKSLQTVDVRVLIDCEGCERKVRRALEGMRGIRDVTIEPNAQKVTVVGYVEPNKVVARIIHRTGKRAELYPFVPYDVVAHPYASGVYDNRAPTGYVRNTEYDPHVSRLARASSTEVRYTTAFSDENASACVVM	soluble
MHAIDFKEIQEKLSDGFRPWQRSFQFWARATDIYTGYKVFQLRMNFVKDVNKHEEMWERQHELAAHKVYSMCSDLGGFFLKIAQILGKPDLAPAAWVRKLVTLCDQAPATPFDAVRVVLEKELGKSIEQVFETFDEKPLGSASIAQVQHPGVEKLMMVDIRNLQIFALYMQKTDIKFDLFSMTKEIEKQIGYEFDFKREANAMEKIRRFLYDNNRKSPVLVPRVFPNLVTRKVLVMEFMNGIPILSLGDEMAKRGINPHGKMAEAAKFNILHSLSQAYGQMILKSGFFHADPHPGNILIGKGSEASHLLELGIATVAKCKNEQQELLQLAKTMFDTEMPPGTTTLQPFSEDSSIKKISVEAFPEELFSVLRTVVLLRGLSVGIGINYSCAQHWRAMAEEALHASGRLSTG	soluble
MHCSLYTRFNVENAGGDFSVGGARVCFRIPENPCSPRPAVAGRANPLPPVADFGMKEVRTKKKKHMTNDVNGMKKKCGRPALGRTRKLTRGVTVKFSPVSYEALRFRAGKSGRSLAVYIREAALAATVTARHTPEENALLRSLAGMANNLNQLTKLSHQTGFYRTRLLIEGLLGKLKRIMDDYRPKGG	not soluble
